In general, Kd refers to a measure of binding affinity in units of concentration. Higher therefore signals lower affinity.

Data on 2 substances can be found in paper PMC9035363.

Where only a bound is given, the exact number is not on record here.

Test [1] addresses RBD-Fc D420N (SARS-CoV-2) (UniProt P0DTC2). Nature of the test: SPR.
Test [2] deals with RBD-Fc E484D (SARS-CoV-2) (UniProt P0DTC2). The test can be described thus: SPR. For orientation: In SPR one partner is held on a chip, and binding of the other changes the refractive index at the surface.
The target of test [3] is RBD-Fc E484K (SARS-CoV-2) (UniProt P0DTC2). Nature of the test: SPR.
Test [4] addresses RBD-Fc E484Q (SARS-CoV-2) (UniProt P0DTC2). Nature of the test: SPR.
Test [5] addresses RBD-Fc F486I (SARS-CoV-2) (UniProt P0DTC2). The test can be described thus: SPR.
The target of test [6] is RBD-Fc F486V (SARS-CoV-2) (UniProt P0DTC2). Nature of the test: SPR.
Test [7] concerns the target RBD-Fc F490S (SARS-CoV-2) (UniProt P0DTC2). The test can be described thus: SPR.
In test [8] the target is RBD-Fc G476S (SARS-CoV-2) (UniProt P0DTC2). Nature of the test: SPR.
The target in test [9] is RBD-Fc K417E (SARS-CoV-2) (UniProt P0DTC2). The test can be described thus: SPR.
In test [10] the target is RBD-Fc K417N (SARS-CoV-2) (UniProt P0DTC2). Nature of the test: SPR.
Test [11] has as its target RBD-Fc K417T (SARS-CoV-2) (UniProt P0DTC2). The test can be described thus: SPR.
Test [12] has as its target RBD-Fc L452R (SARS-CoV-2) (UniProt P0DTC2). The test can be described thus: SPR.
For test [13], the target named is RBD-Fc N439K (SARS-CoV-2) (UniProt P0DTC2). Nature of the test: SPR.
The target in test [14] is RBD-Fc N460K (SARS-CoV-2) (UniProt P0DTC2). Nature of the test: SPR.
The target in test [15] is RBD-Fc N460S (SARS-CoV-2) (UniProt P0DTC2). Nature of the test: SPR.
For test [16], the target named is RBD-Fc N460T (SARS-CoV-2) (UniProt P0DTC2). Nature of the test: SPR.
The target in test [17] is RBD-Fc N501Y (SARS-CoV-2) (UniProt P0DTC2). Nature of the test: SPR.
The target of test [18] is RBD-Fc S477N (SARS-CoV-2) (UniProt P0DTC2). The test can be described thus: SPR.
Test [19] concerns the target RBD-Fc S494P (SARS-CoV-2) (UniProt P0DTC2). Nature of the test: SPR.
Test [20] concerns the target RBD-Fc V483A (SARS-CoV-2) (UniProt P0DTC2). Nature of the test: SPR.
The target in test [21] is RBD-Fc Y453F (SARS-CoV-2) (UniProt P0DTC2). The test can be described thus: SPR.
The target in test [22] is RBD-Fc Y489H (SARS-CoV-2) (UniProt P0DTC2). Nature of the test: SPR.
In test [23] the target is RBD-Fc K417N (SARS-CoV-2) (UniProt P0DTC2).
In test [24] the target is RBD-Fc K417T (SARS-CoV-2) (UniProt P0DTC2).
The target of test [25] is RBD-Fc L452R (SARS-CoV-2) (UniProt P0DTC2).
Test [26] has as its target SARS-CoV-2 S D614G on CHO cells (SARS-CoV-2) (UniProt P0DTC2).
In test [27] the target is SARS-CoV-2 S N439K on CHO cells (SARS-CoV-2) (UniProt P0DTC2).
Test [28] has as its target SARS-CoV-2 S N501Y on CHO cells (SARS-CoV-2) (UniProt P0DTC2).
For test [29], the target named is SARS-CoV-2 S S477N on CHO cells (SARS-CoV-2) (UniProt P0DTC2).
Test [30] concerns the target SARS-CoV-2 S S494P on CHO cells (SARS-CoV-2) (UniProt P0DTC2).
For test [31], the target named is SARS-CoV-2 S D614G on CHO cells (SARS-CoV-2) (UniProt P0DTC2). The source holds these as a separate data set.
In test [32] the target is RBD N440D on yeast (SARS-CoV-2) (UniProt P0DTC2).
Test [33] deals with RBD-Fc D420N (SARS-CoV-2) (UniProt P0DTC2).
The target of test [34] is RBD-Fc E484K (SARS-CoV-2) (UniProt P0DTC2).
In test [35] the target is RBD-Fc K417E (SARS-CoV-2) (UniProt P0DTC2).
Test [36] addresses RBD-Fc L452R (SARS-CoV-2) (UniProt P0DTC2). This is another data set of the same source.
In test [37] the target is RBD-Fc Y453F (SARS-CoV-2) (UniProt P0DTC2).
In test [38] the target is SARS-CoV-2 S S494P on CHO cells (SARS-CoV-2) (UniProt P0DTC2). This is another data set of the same source.

As to LY-CoV1404 Fab (papain digestion), the Kd in [1] worked out at 4.09 nM; in test [2], 3.37 nM; in test [3] it was 3.19 nM; in [4], 3.74 nM; in test [5] it was 2.69 nM; in test [6] it was 2.82 nM. Besides, the Kd in test [7] was 2.99 nM; in test [8], 4.35 nM; in test [9] it was 2.59 nM; in [10], 3.08 nM; in [11] it was 2.54 nM; in test [12], 4.94 nM. Further, the Kd in [13] is 5.05 nM; in test [14], 3.4 nM; in [15], 2.6 nM; in [16], 3.52 nM; in test [17] it was 2.9 nM; in test [18], 3.45 nM. Further, the Kd in test [19] stood at 3.46 nM; in test [20], 3.29 nM; in [21], 3.28 nM; in [22], 3.06 nM.

For “LY-CoV1404 (bebtelovimab), full-length human IgG1 mAb (antibody)”, the results for the VSV pseudovirus (whole S) neutralisation IC50 in test [23], in test [24] and in test [25] were 2 ng/mL, 2 ng/mL and under 1 ng/mL, respectively. The same substance registered a lentiviral pseudovirus (whole S) neutralisation IC90 in test [25] of 10 ng/mL. The substance also had a lentiviral pseudovirus neutralisation IC50 in [26] of 3 ng/mL. The same substance had a lentiviral pseudovirus neutralisation IC90 in test [26] of 10 ng/mL. Besides, the VSV pseudovirus neutralisation IC50 in test [27] stood at 2 ng/mL; in test [28], 2 ng/mL; in test [29] it was 5 ng/mL; in test [30], 2 ng/mL. Further, the VSV pseudovirus neutralisation IC90 in test [27] came to 7 ng/mL; in [28] it was 7 ng/mL; in test [29], 26 ng/mL. This substance also gave a pseudovirus neutralisation (second system of Table 3D), IC50 in test [31] of 3 ng/mL. In addition, the pseudovirus (whole S) susceptibility IC50 in test [32] is 6 ng/mL; in test [33], 2 ng/mL; in test [34], 2 ng/mL; in test [35] it was 4 ng/mL; in test [36], 2 ng/mL; in test [37] it was 2 ng/mL. In test [38], the pseudovirus susceptibility IC50 is 1 ng/mL.
